From paper PMC3787792 come the findings set out here.

Assay in all cases: SEC + other: SDS-PAGE
Test [1] has as its target IgG1-Fc variant K360E (soluble) (human).
Test [2] deals with IgG1-Fc variant N421D (soluble) (human).
Test [3] concerns the target IgG1-Fc variant K392R (soluble) (human).
The target of test [4] is IgG1-Fc variant Q438K (soluble) (human).
Test [5] deals with IgG1-Fc variant Q438R (soluble) (human).
Test [6] concerns the target IgG1-Fc variant S424T (soluble) (human).
Test [7] addresses IgG1-Fc variant Q418L (soluble) (human).
The target of test [8] is IgG1-Fc variant T437I (soluble) (human).
Test [9] has as its target IgG1-Fc variant Q347E (soluble) (human).
The target in test [10] is IgG1-Fc variant S400F (soluble) (human).
Test [11] has as its target IgG1-Fc variant S354P (soluble) (human).
Test [12] concerns the target IgG1-Fc variant K360Q (soluble) (human).

The term stoichiometry N denotes the number of molecules, sites or subunits per partner or assembly. As for “IgG1-Fc variant K360E (soluble) (domain or fragment)”, in test [1], the stoichiometry N was 2. On to “IgG1-Fc variant N421D (soluble) (domain or fragment)”, for which the stoichiometry N in [2] turned out to be 2. Regarding “IgG1-Fc variant K392R (soluble) (domain or fragment)”, in [3], the stoichiometry N was determined as 2. With “IgG1-Fc variant Q438K (soluble) (domain or fragment)”, in [4], the stoichiometry N amounted to 2. In the case of “IgG1-Fc variant Q438R (soluble) (domain or fragment)”, the stoichiometry N in [5] came out at 2.

On to “IgG1-Fc variant S424T (soluble) (domain or fragment)”, for which the stoichiometry N in test [6] came to 2. Consider “IgG1-Fc variant Q418L (soluble) (domain or fragment)”, for which the stoichiometry N in test [7] was found to be 2. In the case of “IgG1-Fc variant T437I (soluble) (domain or fragment)”, the stoichiometry N in test [8] amounted to 2.

On to “IgG1-Fc variant Q347E (soluble) (domain or fragment)”, for which the stoichiometry N in test [9] stood at 2.

“IgG1-Fc variant S400F (soluble) (domain or fragment)”: in test [10], the stoichiometry N turned out to be 2.

“IgG1-Fc variant S354P (soluble) (domain or fragment)”: the stoichiometry N in test [11] was found to be 2. As to “IgG1-Fc variant K360Q (soluble) (domain or fragment)”, the stoichiometry N in [12] stood at 2.
